Results on 2 molecules are retold here after patent publication US20060019335A1, “Compositions and methods to promote c-IAP autodegradation” (priority 2004, published 2006).

The subject of assay [1] is c-IAP1. Nature of the assay: In vitro ubiquitylation assay of purified c-IAP1 and BIR deletion mutants. It is filed as biochemical, human. The settings on record: for c-IAP1 auto-ubiquitylation in vitro: full length c-IAP1, UbCH6 as E2, FIG. 7A. The procedure: (§1) In vitro ubiquitylation assays—In vitro ubiquitylation assays were carried out as previously described (29). IAP proteins (200 nM) were incubated with or without Smac polypeptide for 2 hours at 30° C. in a reaction system containing 50 mM Tris-HCl (pH 7.5), 50 mM NaCl, 2 mM Mg-ATP, 20 μM mammalian ubiquitin, 100 nM rabbit ubiquitin-activating enzyme (E1) and 400 nM of recombinant human ubiquitin-conjugating enzymes (E2). The reactions were stopped by adding equal volumes of 2×SDS sample loading buffer followed by Western Blot analysis.
To determine whether Smac promotes auto-ubiquitylation of XIAP, purified XIAP (without tag) was incubated for 2 hours at 30° C. either with or without different concentrations of Smac or with Smac ΔA in the reconstituted ubiquitylation reaction system (Ub Mix) consisting of 50 mM Tris-HCl (pH 7.5), 50 mM NaCl, 2 mM Mg-ATP, 20 μM mammalian ubiquitin, 100 nM rabbit ubiquitin-activating enzyme (E1) and 400 nM UbCH6 (E2). The reactions were stopped by adding equal volumes of 2×SDS sample loading buffer and the products were subjected to SDS-PAGE followed by immunoblotting with anti-XIAP antibody. The purified XIAP was active in directing poly-ubiquitylation. But the auto-ubiquitylation of XIAP was not enhanced by Smac.
Smac ΔA and the peptide Smac-7M were used as negative controls. The reactions were stopped by adding equal volumes of 2×SDS sample loading buffer and the products were subjected to SDS-PAGE followed by immunoblotting with anti-c-IAP1 antibody. The arrows indicate the unmodified full length or deleted c-IAP1.
To verify this, stepwise deletion was performed of the first BIR (ΔBIR1, residues 1-161), the first two BIRs (ΔBIR1-2, residues 1-265), or all the three BIR domains (ΔBIR1-2-3, residues 1-339) from c-IAP1. All these mutants and the full-length wild type c-IAP1 were purified as a non-tagged form by using the pTYB11 Intein system (New England Biolabs).

The test system of assay [2] is c-IAP1. The assay is described as follows: Co-transfection of HeLa cells with c-IAP1 and Smac plasmids, Western blot. It is filed as cell-based, human. The settings on record: for auto-ubiquitylation (E3 activity) of c-IAP1: co-transfection, FIG. 2A. On the procedure: Transfection of cultured Cells—HeLa cells were grown in DMEM supplemented with 10% fetal bovine serum. Cells were seeded onto 6-well plates the day before transfection and transfected at 70% confluence by using Lipofectin combined with Plus reagent (Invitrogen) according to the manufacture's protocols. The IAP expression plasmids (3 μg each for c-IAP1, c-IAP2 and XIAP, and 250 ng each for Livin αand Livin β) together with 2.5 μg of Smac expression plasmids or pcDNA3.1(−) blank plasmid were used for single-well transfection in the absence of antibiotics. The cells were harvested 12 hours after the transfection and lysed with 0.5% CHAPS in 20 mM HEPES (pH 7.4), 10 mM KCl, 1 mM MgCl2 and 1 mM DTT. The lysates were centrifuged and the protein concentrations of the supernatants were quantified by the modified Bradford method (36).
Western Blot analysis—Proteins were resolved by SDS-PAGE and transferred to nitrocellulose filters. The filters were blocked with 5% milk and probed with antibodies as indicated. The signals were visualized with the enhanced chemiluminescence method.
To investigate the effect of Smac polypeptide on IAP protein levels, HeLa cells were transfected with the expression vectors for Smac and various IAPs. Briefly, HeLa cells were either transfected with IAP alone (Lane 2, 4 and 6), or together with Smac polypeptide (Lane 3, 5 and 7), or with Smac polypeptide alone (Lane 1). Equal amounts of cell lysates (7 μg) were immunoblotted with either the HRP-conjugated anti-FLAG antibody (shown in the top panel) in order to detect N-terminal 3×FLAG tagged IAPs, or with the anti-c-Myc antibody (bottom panel) to detect C-terminal c-Myc tagged Smac. The ubiquitin fusion technique was used to secure the production of mature Smac protein with the expected N-terminal AVPI motif (6, 37).
Because it is known that the His^588 residue in the RING finger domain is important for the IAP E3 activity (22), this residue was mutated to test whether Smac stimulated the ubiquitylation-mediated degradation of both c-IAP1 and c-IAP2. In each case, His^588 in c-IAP1 and His^574 in c-IAP2 was mutated to Ala (H588A mutant and H574A mutant, respectively) and the results are depicted in FIGS. 2A and 2B. The c-IAP1 WT or H588A mutant plasmids together with either Smac WT or Smac ΔA mutant, or with pcDNA3.1 (−) blank plasmid were co-transfected into HeLa cells (FIG. 2A). The c-IAP2 WT or H574A mutant plasmids together with either Smac WT or Smac ΔA mutant, or with pcDNA3.1 (−) blank plasmid were co-transfected into HeLa cells (FIG. 2B). As controls, HeLa cells were also transfected with either Smac WT or ΔA plasmids together with the blank p3×FLAG-CMV-7 plasmid. The transfected cells were cultivated either in the absence (see lanes 1-7 of FIGS. 2A and 2B) or in the presence (see lanes 8-14 of FIGS. 2A and 2B) of MG132. Equal amounts of soluble proteins (7 μg) from the transfected cells were immunoblotted with either the HRP-conjugated anti-FLAG antibody (see top panel of FIGS. 2A and 2B) to detect N-terminal 3×FLAG tagged IAPs, or with the anti-c-Myc antibody (see middle panel of FIGS. 2A and 2B) to detect C-terminal c-Myc tagged Smac. The anti-Actin immunoblotting results were to show equal protein loading (see bottom panel of FIGS. 2A and 2B).
(In western blotting, separated proteins are transferred to a membrane and probed.)

The test system of assay [3] is IAP proteins (GST fusion form). The assay is described as follows: GST pull-down of purified IAP proteins with Smac, silver staining. It counts as binding, human. The settings on record: equimolar concentrations, 2 hours at 4° C., FIG. 4. On the procedure: The ability of various IAP proteins to bind Smac WT polypeptide and Smac ΔA mutant polypeptide was also examined. The results are depicted in FIG. 4. Briefly, purified IAP proteins (GST fusion form; as indicated in FIG. 4) were incubated with equimolar concentrations of either Smac or Smac ΔA in a buffer containing 20 mM phosphate (pH 7.4), 200 mM NaCl and 0.05% Tween 20 for 2 hours at 4° C. The GST-fused IAP proteins were pulled down by Glutathione Sepharose beads. The resulting […] were subjected to SDS-PAGE followed by silver staining. Lane M of FIG. 4 is the protein marker. […] The reason for this IBM-independent acceleration on XIAP and Livin ubiquitylation is unknown.

A further assay has as its target T1, c-IAP2 (Homo sapiens, UniProt Q13489).
T1 construct: produced not only the expected full length c-IAP1 or c-IAP2; expressed in transfected cells; host or cells: HeLa
Nature of the assay: In vitro ubiquitylation assay of c-IAP2. It counts as biochemical. To be noted: data not shown. The procedure:
as §1
The observation that Smac promotes c-IAP1 auto-ubiquitylation in HeLa cells was further confirmed in vitro by using UbCH6 as the E2.

[4] abbreviates: listed as Smac mutant lacking the initial Ala residue.

Entries after “also recorded” stand apart in the source; their conditions may differ.

T1 sequence (Q13489 whole entry): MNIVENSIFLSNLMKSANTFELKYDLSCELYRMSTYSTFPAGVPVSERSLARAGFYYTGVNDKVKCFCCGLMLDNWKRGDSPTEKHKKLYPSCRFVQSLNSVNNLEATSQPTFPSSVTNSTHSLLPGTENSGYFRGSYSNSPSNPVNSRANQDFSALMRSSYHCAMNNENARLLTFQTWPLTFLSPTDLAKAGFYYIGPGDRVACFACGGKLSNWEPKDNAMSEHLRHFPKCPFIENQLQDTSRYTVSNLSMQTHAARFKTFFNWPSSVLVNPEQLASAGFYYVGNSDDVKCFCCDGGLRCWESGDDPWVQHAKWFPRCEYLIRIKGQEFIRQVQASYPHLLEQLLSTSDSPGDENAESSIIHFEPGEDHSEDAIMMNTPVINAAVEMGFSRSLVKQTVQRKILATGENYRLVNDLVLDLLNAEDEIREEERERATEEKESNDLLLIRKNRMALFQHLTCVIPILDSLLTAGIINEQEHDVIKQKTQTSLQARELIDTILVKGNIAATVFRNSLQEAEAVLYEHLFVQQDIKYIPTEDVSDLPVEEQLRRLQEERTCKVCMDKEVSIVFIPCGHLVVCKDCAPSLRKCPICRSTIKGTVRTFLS

B1: Smac: wild type (WT) Smac polypeptide from Homo sapiens, SEQ ID NO 1, 239 amino acids; second mitochondria-derived activator of caspase (protein, listed as Homo sapiens)
chain: MAALKSWLSRSVTSFFRYRQCLCVPVVANFKKRCFSELIRPWHKTVTIGFGVTLCAVPIAQKSEPHSLSSEALMRRAVSLVTDSTSTFLSQTTYALIEAITEYTKAVYTLTSLYRQYTSLLGKMNSEEEDEVWQVIIGARAEMTSKHQEYLKLETTWMTAVGLSEMAAEAAYQTGADQASITARNHIQLVKLQVEEVHQLSRKAETKLAEAQIEELRQKTQEEGEERAESEQEAYLRED
For the molecule B1, the “auto-ubiquitylation activity of c-IAP1 ΔBIR1-2-3” value in the assay on c-IAP1 [1] (all three BIR domains deleted (residues 1-339), FIG. 7A) is listed as “could no longer be enhanced”. In the assay with c-IAP1 [1] (first BIR deleted (residues 1-161), FIG. 7A), the “auto-ubiquitylation activity of c-IAP1 ΔBIR1” value is given as “significantly enhanced”. In the assay on c-IAP1 [1] (first two BIRs deleted (residues 1-265), FIG. 7A), the “auto-ubiquitylation activity of c-IAP1 ΔBIR1-2” value was “significantly enhanced”. The “c-IAP1 auto-ubiquitylation in vitro” value in the assay with c-IAP1 [1] is listed as “significantly enhanced c-IAP1 auto-ubiquitylation”. In the assay with c-IAP1 [2] (co-expression, absence of MG132, FIG. 2A), the “level of wild type c-IAP1” value is “nearly complete disappearance of c-IAP1; also recorded: nearly non-detectable level”. For the same molecule, the “levels of non-/mono-/di-ubiquitylated and highly ubiquitylated c-IAP1 forms” value with c-IAP1 [2] (co-expression, presence of MG132, FIG. 2A) is “reduction in the level of non-ubiquitylated and mono-/di-ubiquitylated wild type c-IAP1 and a concomitant increase in the level of highly ubiquitylated c-IAP1 forms”. The “level of E3-negative H588A c-IAP1” value with c-IAP1 [2] (either in the absence or in the presence of MG132) was “did not cause a drastic change”. In the assay with c-IAP1 [2] (mature Smac co-expressed, FIG. 1), the “protein level of c-IAP1” value is on record as “significantly decreased”. The “binding to IAP proteins” value in assay [3] is reported as “bind”.

B2: Smac ΔA: Smac mutant lacking the initial Ala (Ala deletion mutant polypeptide), used as negative control (protein, UniProt Q9NR28 22-239, looked up, variant A1*)
Diablo IAP-binding …: LCVPVVANFKKRCFSELIRPWHKTVTIGFGVTLCVPIAQKSEPHSLSSEALMRRAVSLVTDSTSTFLSQTTYALIEAITEYTKAVYTLTSLYRQYTSLLGKMNSEEEDEVWQVIIGARAEMTSKHQEYLKLETTWMTAVGLSEMAAEAAYQTGADQASITARNHIQLVKLQVEEVHQLSRKAETKLAEAQIEELRQKTQEEGEERAESEQEAYLRED
In the case of B2, the “c-IAP2 auto-ubiquitylation in vitro” value with c-IAP2 is listed as “did not promote the E3 activity”. Also, the entries for the “c-IAP1 auto-ubiquitylation in vitro” value with c-IAP1 [1] and with c-IAP1 [1] (setting [4]) were “failed to promote such auto-ubiquitylation” and “did not promote the E3 activity”, respectively. Further, the “E3 activity of c-IAP1ΔBIR1” value in the assay on c-IAP1 [1] (peptides and controls, FIG. 7B) was “failed to activate c-IAP1”. Also, the “auto-ubiquitylation (E3 activity) of c-IAP1” value in the assay on c-IAP1 [2] is recorded as “did not enhance the auto-ubiquitylation of c-IAP1”; with c-IAP1 [2] (setting [4]), “did not promote the E3 activity”. Moreover, the “binding to IAP proteins” value was “failure to bind” in assay [3] and “did not bind IAP proteins” in assay [3] (setting [4]).
